From the supplement of paper PMC12764529
± gives the half width of the 95% confidence interval.

What was measured:
[1] = folding stability dG unfold from trypsin proteolysis; higher = more stable
Outline: (§1)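 Bayesian fitting of sequencing counts gave K50 for each design. Unfolding free energy followed by setting this against a sequence-predicted unfolded-state K50 and a shared folded-state K50, either per protease or with trypsin and chymotrypsin combined. The designs, under 80 residues and lacking cysteine, were digested in a PA-tagged cDNA display format at 11 threefold-diluted protease concentrations and without protease, and only those with AlphaFold2 dimer inter-PAE above 15 were kept.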

[2] = folding stability dG unfold from chymotrypsin proteolysis; higher = more stable
Outline: as §1

[3] = folding stability dG unfold (combined trypsin and chymotrypsin); higher = more stable
Outline: as §1

Sequence | folding stability dG unfold [1] | folding stability dG unfold [2] | folding stability dG unfold [3]
SAGPKITVKKLPDGSYLLLIEVPHEGGPSSRALIPYNPKTGKLELLEIETTHEEIKDKLIELAEELRKSSAG [r5_266_TrMRF] | 1.96 ± 0.08 kcal/mol | 2.8 ± 0.071 kcal/mol | 2.52 ± 0.13 kcal/mol
SAGGSAGGSAGGSKPMYLFTVETENGKKLVIEAKSLEEALKALEKAGYKIKKVEVVKLPSAGGSAGGSAGGS [r4_213_TrROS_Hall] | 3.36 ± 0.1 kcal/mol | 3.996 ± 0.036 kcal/mol | 3.81 ± 0.071 kcal/mol
SAGPTVRIRFAGEEEIEVEVGEELEIRLPDGSVVRIRVKPDGTVTVTRPDGSEVELEDVDEVEIEVFPASAG [r5_869_TrROS_Hall] | 3.3 ± 0.13 kcal/mol | 3.21 ± 0.076 kcal/mol | 3.4 ± 0.2 kcal/mol
SAGGSAGGSGMVEEEEYEDPATGVRTRTTTTYLPNGTVVRTPVVYTPDRPVEEVPTVTPIPSGSAGGSAGGS [r20_88_JUSTAS] | 1.04 ± 0.075 kcal/mol | 0.62 ± 0.13 kcal/mol | 0.958 ± 0.21 kcal/mol
SAGGSAGGSAGGSIPPSDVTTEVDPNTPLTTVTYPSGVVVTETFPPDGTSTTTVDTAAGSAGGSAGGSAGGS [r10_170_JUSTAS] | 2.01 ± 0.038 kcal/mol | 1.23 ± 0.028 kcal/mol | 1.56 ± 0.039 kcal/mol
SGSFKLLKVEEHPDNPSITAVLTFPDGSTATLRFRPDGSWTGYVESTGKPFTAVSGENELKLFVPEELTLSA [r9_233_TrMRF] | 0.67 ± 0.059 kcal/mol | 0.319 ± 0.14 kcal/mol | 0.523 ± 0.095 kcal/mol
SAGGMKVTPNGKVVKKKPKVPVKKVTLTVKVKTAEEAKALADALRDLGYKVTVDEETGVVTVEVEIESAGGS [r16_765_TrROS_Hall] | 0.996 ± 0.079 kcal/mol | 1.5 ± 0.058 kcal/mol | 1.28 ± 0.1 kcal/mol
SAGGSAGGSAMLTKITITFEKPGTDETFTKPIDVPPDNPEEAIKAIKEELKKKGYKVKSVILSAGGSAGGSA [r18_3_JUSTAS] | 1.28 ± 0.078 kcal/mol | 1.73 ± 0.074 kcal/mol | 1.57 ± 0.15 kcal/mol
SAGGSAGGSAGKKYKVKVILQPKGEDKPLEIEIEVESLEEAKELLEKAFPDTRIRIDVIESAGGSAGGSAGG [r17_428_TrMRF] | 1.99 ± 0.098 kcal/mol | 2.93 ± 0.088 kcal/mol | 2.59 ± 0.18 kcal/mol
SAGLKVEIFPMDGTEQTIPIPAEDADPLVDEFQDNGFKVDNVEVDPDGEVWIPIKFPNGRPWMIEIDWESAG [r5_645_TrROS] | -0.0958 ± 0.093 kcal/mol | -0.0946 ± 0.31 kcal/mol | 0.0616 ± 0.29 kcal/mol
SAGGSAGGSAGGGDFEKVKVRFRYVNPDGGPERDIEIEVEARKEDIPRLLKELKDAGLIESAGGSAGGSAGG [r7_618_TrMRF] | 0.982 ± 0.054 kcal/mol | 1.25 ± 0.15 kcal/mol | 1.23 ± 0.099 kcal/mol
SAGGSAGGSMTKTITTKTEEEAESEARRLLKEEGVPEGVEPTPITLESVDPEKGLYTFTVELESAGGSAGGS [r12_999_JUSTAS] | 0.2 ± 0.062 kcal/mol | 0.395 ± 0.099 kcal/mol | 0.379 ± 0.076 kcal/mol
SMVEKLPDGTTVIKGELPLDVSIEDVLAKLPDLKLASRTSETDPATGKRYYTFIVKPDGTVDVTSEPKLLSA [r9_238_JUSTAS] | 0.645 ± 0.027 kcal/mol | 1.21 ± 0.091 kcal/mol | 0.957 ± 0.045 kcal/mol
SAGGSAGGSSFSVEVIENPDSDVILRKIHFDNFTVIPLFDPSTGKIVSVVVQFPDGSWYTFPLSAGGSAGGS [r12_563_TrMRF] | 2.18 ± 0.1 kcal/mol | 2.78 ± 0.053 kcal/mol | 2.51 ± 0.11 kcal/mol
SAGGAKIKFDIEPTNNTIRVKIEIWLPGGPVEIVEEEPVRVDPNGGIWISFRIRYPDGKPQEFQIPISAGGS [r8_449_TrROS] | 2.62 ± 0.057 kcal/mol | 3.08 ± 0.07 kcal/mol | 2.88 ± 0.14 kcal/mol
SAGPEPVIRLAREHLERGEVLRITLTGRSGVPRTFLLRPEDILWFFDNLPDPSDIASVDIETYPLGYPPSAG [r5_956_TrMRF] | 2.17 ± 0.028 kcal/mol | 3.352 ± 0.016 kcal/mol | 3.01 ± 0.078 kcal/mol
SAKKIKIKEITITVEKNKDGSYTITITVDGKKIAELTFKTPEEAEKAAEELAKELAKKLNVDKIEIKPTSAG [r14_791_TrROS_Hall] | 1.5 ± 0.18 kcal/mol | 2.69 ± 0.25 kcal/mol | 2.09 ± 0.22 kcal/mol
SAGKMLVVRIEVEVEVEVTVEKDGKKETFKEKKKLTLTLVFESEEEAEAAKKELEKLFPDLKIEVVPLPSAG [r5_453_TrROS_Hall] | 4.43 ± 0.47 kcal/mol | 4.56 ± 0.16 kcal/mol | 4.54 ± 0.2 kcal/mol
SAGGSAGGSAGSITFTVPASEFTEEEILERLVEELGIPREKVDLVEIKETPDGKLKVTIKIPSAGGSAGGSA [r18_118_JUSTAS] | 2.86 ± 0.085 kcal/mol | 2.488 ± 0.021 kcal/mol | 2.63 ± 0.06 kcal/mol
SAGGSAMIEIEINGKKYKIEIVKVEEKDGKVKVKIKIKDKETGKEIEIEIEMPKEELEKLLKEILSSAGGSA [r15_944_TrROS_Hall] | 2.79 ± 0.27 kcal/mol | 3.97 ± 0.28 kcal/mol | 3.65 ± 0.48 kcal/mol
SAGGSAGGSMKTVEIELVNKETGKKVTITVNDGKVTIRITNPDGEEKELEFPSLEEALEALLSSAGGSAGGS [r12_511_TrROS_Hall] | 2.45 ± 0.14 kcal/mol | 1.93 ± 0.19 kcal/mol | 2.19 ± 0.2 kcal/mol
